Publication PMC5440690, “Sirt1 carboxyl-domain is an ATP-repressible domain that is transferrable to other proteins” (Nature Communications, 2017)

Substrate: NC(=O)c1ccc[n+]([C@@H]2O[C@H](COP(=O)([O-])OP(=O)(O)OC[C@H]3O[C@@H](n4cnc5c(N)ncnc54)[C@H](O)[C@@H]3O)[C@@H](O)[C@H]2O)c1
Assay: steady-state deacetylation kinetics (Km)
Type: biochemical, Mus musculus

B1: Sirt1 (Mus musculus) (protein)
chain: ADEVALALQAAGSPSAAAAMEAASQPADEPLRKRPRRDGPGLGRSPGEPSAAVAPAAAGCEAASAAAPAALWREAAGAAASAEREAPATAVAGDGDNGSGLRREPRAADDFDDDEGEEEDEAAAAAAAAAIGYRDNLLLTDGLLTNGFHSCESDDDDRTSHASSSDWTPRPRIGPYTFVQQHLMIGTDPRTILKDLLPETIPPPELDDMTLWQIVINILSEPPKRKKRKDINTIEDAVKLLQECKKIIVLTGAGVSVSCGIPDFRSRDGIYARLAVDFPDLPDPQAMFDIEYFRKDPRPFFKFAKEIYPGQFQPSLCHKFIALSDKEGKLLRNYTQNIDTLEQVAGIQRILQCHGSFATASCLICKYKVDCEAVRGDIFNQVVPRCPRCPADEPLAIMKPEIVFFGENLPEQFHRAMKYDKDEVDLLIVIGSSLKVRPVALIPSSIPHEVPQILINREPLPHLHFDVELLGDCDVIINELCHRLGGEYAKLCCNPVKLSEITEKPPRPQKELVHLSELPPTPLHISEDSSSPERTVPQDSSVIATLVDQATNNNVNDLEVSESSCVEEKPQEVQTSRNVENINVENPDFKAVGSSTADKNERTSVAETVRKCWPNRLAKEQISKRLEGNQYLFVPPNRYIFHGAEVYSDSEDDVLSSSSCGSNSDSGTCQSPSLEEPLEDESEIEEFYNGLEDDTERPECAGGSGFGADGGDQEVVNEAIATRQELTDVNYPSDKS
notes: recombinant WT Sirt1
  Km: 203.08 ± 13.24 µM
